The supplement of paper PMC12042874
± gives the uncertainty stated by the source.

Test: amyloid nucleation score (Sup35N fusion, yeast selection) (log enrichment); library NNK2; higher = more nucleation; inactive = no reads after selection
In short: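 The nucleation score is the log enrichment of output over input reads, calculated with DiMSum and centred on the mode score of non-aggregating sequences. Sequences with under 100 input reads were excluded. Reads came from Illumina sequencing of plasmid inserts from psi-negative yeast expressing Sup35N fused to peptides of 20 random codons, induced 24 hours with 100 μM copper sulfate and grown 7 days at 30°C without adenine and uracil.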

Substance | amyloid nucleation score
RMLCSHINYLIVGMG | -0.061 ± 0.28
RMRCLDSVQGLNLIHTDVSV | inactive
RMVMSE | 0.16 ± 0.31
RMVRGLAFGDFWASSMRKYP | 0.241 ± 0.33
RMVVVVSKRY | 1.73 ± 0.17
RMYLVGMLMHSLLEEMSKTA | 4.76 ± 0.083
RNALDTDAAE | 0.323 ± 0.55
RNFDRGWSHR | 0.319 ± 0.4
RNGVLTEARHLSVSGEERRV | -0.316 ± 0.8
RNHVAHH | 2.17 ± 0.21
RNSCFVLSFMGWFVHYHFRF | -0.317 ± 0.79
RNSLEFTDTRCNQPGQCESG | 0.641 ± 0.4
RNVACFSAVT | -0.283 ± 0.63
RPAFTNLRQCQRAYPVGGRC | 0.195 ± 0.53
RPIKRV | 0.173 ± 0.2
RPISLCALYWLNLRANIHCR | 0.144 ± 0.56
RPKTEDCGLNLSTVLNQVGH | 0.111 ± 0.19
RPNLLSDILPRGLMAKSMHF | 0.107 ± 0.79
RPYNPFPLCILRWRPELL | inactive
RRALIWIAIHECIRTTPHLL | -0.434 ± 0.76
RRFVCRCFRYTHECVLGCFG | 1.52 ± 0.33
RRGENIDESVRVVEWGVDVM | 0.64 ± 0.47
RRGTQVFCCDYWSARGSWT | 8.749 ± 0.062
RRKHLWRQRLWTR | -0.425 ± 0.63

Substance | amyloid nucleation score
RRPCLS | -1.09 ± 0.63
RRPIGDW | 0.169 ± 0.36
RRRRSGLCRAYVNVLNARTR | 0.79 ± 0.41
RSAILEEDFDCHMYWGL | 0.916 ± 0.31
RSCFPCSCK | 0.472 ± 0.31
RSCFPMIIALVRFDVFGDCY | -0.339 ± 0.31
RSDSVYSIGCSNENRQSGRA | 1.21 ± 0.2
RSFEVKLFARSLKHIPDLTP | 1.02 ± 0.35
RSGCQMKCITYRGRAGGHLV | 0.882 ± 0.31
RSICVYTIRYLFSH | -0.513 ± 0.3
RSIRCVYKF | -0.465 ± 0.29
RSKDYVFFCFSCTNWLC | 8 ± 0.082
RSLDQSIVNRVVVYFSGWCV | 3.62 ± 0.073
RSLGVSAL | inactive
RSPCIWLWFLNAACHKCVLM | 0.752 ± 0.43
RSPMWLAGLMNIYSP | 2.87 ± 0.084
RSPRHQNQDPRLKGRNARSP | 2.49 ± 0.086
RSRVLILCDEGRNCVL | -0.533 ± 0.42
RSSADAPVY | -0.864 ± 1.1
RSTLPGRRFFIGNILYN | -0.578 ± 0.78
RSWIGERIIYSSMRYQCAYL | -1.42 ± 0.54
RTCTFVCRGM | 2.86 ± 0.1
RTGLTRYLLYFPV | 0.326 ± 0.22
RTGRPSHDFRYGKQRFMVRP | 0.736 ± 0.74

Substance | amyloid nucleation score
RTIVCF | -0.699 ± 1
RTLFSRFYRRSMFNLSVKKK | inactive
RTLLSSCKIATSLWHMCYPQ | -0.381 ± 1.1
RTLYSGWVGHVSKEARNLFK | 6.12 ± 0.054
RTVIQQVPAPLARAGVRWGW | 3.17 ± 0.097
RTVLATYMTPRSTPKSDYPR | -0.734 ± 0.48
RTVLFAGCAVSNEMFCEKLV | 3.68 ± 0.077
RTVLGGWMANWASHNILVQC | 0.316 ± 0.39
RTYSMGGIR | -0.849 ± 1.1
RVDGDYSSARRGGLISKWAF | 0.804 ± 0.5
RVEEWASFTTVIIMRMLNPG | 0.94 ± 0.6
RVFFTVCGMHTGSSKKLAGL | 1.23 ± 0.21
RVFMEH | -0.047 ± 1.1
RVFRCYRIIYMVMI | 0.204 ± 0.19
RVGDEFVGCRWVSRIANSHS | 2.23 ± 0.14
RVGFNNRNVVD | 0.266 ± 0.56
RVGQSIYMPPLRNGRAGVKW | 1.21 ± 0.27
RVGRSSKLWGFREYTSRKFG | 0.28 ± 0.77
RVKEMWGVYVGQHGYTANAL | 0.842 ± 0.47
RVQDRYILNSVRQHHGAGQR | -0.14 ± 1.1
RVQVQLLISVYFFLYLPHSI | -1.58 ± 0.41
RVSESLPSTD | -0.219 ± 0.47
RVSQHGEVPSTCFSK | 1.39 ± 0.38
RVSYDF | 0.43 ± 0.65
